According to patent US20090068207A1, “Compositions Containing Beta 2-Glycoprotein I-Derived Peptides for the Prevention and/or Treatment of Vascular Disease” (Vascular Biogenics Ltd., priority 2005, published 2009):

Experiments:
Format in all cases: in vivo
[1] = test system: aorta tissue from ApoE-KO mice; experiment: RT-PCR analysis of cytokine expression in aorta; conditions: oral 100 μg/mouse, 5 times every other day; male ApoE-KO mice
Procedure: RT-PCR analysis of cytokine expression: 7-9 week old male ApoE-KO mice were tolerized by oral administration of β2GPI in 5 feedings, every other day, of human β2GPI (100 μg/mouse) or PBS, as control, by gavage, as detailed hereinabove. Three days following the oral administration of β2GPI, the mice were sacrificed, aortas collected and processed for RT-PCR analysis of the expression of anti-inflammatory Th2 type cytokine IL-10 and the proinflammatory Th1-type cytokine IFN-γ. The RT-PCR analysis was performed according to the protocol as described in detail by Colle et al (Journal of Immunol Methods 1997; 175-184). Briefly, RNA was extracted from the aortal tissue and reverse transcribed according to well-known, standard protocols, and the transcription products subjected to PCR amplification using the following primers: IL-10-forward primer 5′ […] 3′ (SEQ ID NO: 1), located at nucleotide positions 256-278 of IL-10 (GenBank Accession No. NM 010548 (SEQ ID NO: 2)) and reverse primer 5′[…] 3′ (SEQ ID NO: 3), located at nucleotide positions 532-556 of IL-10 (GenBank Accession No. NM 010548 (SEQ ID NO: 2)); IFN-γ-forward primer 5′ […] 3′ (SEQ ID NO: 4), located at nucleotide positions 372-397 of IFN-γ (GenBank Accession No. NM 008337 (SEQ ID NO: 5)), reverse primer 5′ […] 3′ (SEQ ID NO: 6), located at nucleotide positions 804-827 of IFN-γ (GenBank Accession No. NM 008337 (SEQ ID NO: 5)); and β-actin-forward primer 5′ […] 3′ (SEQ ID NO: 7), located at nucleotide positions 230-252 of β-actin (GenBank Accession No. NM 007393 (SEQ ID NO: 8)), and reverse primer 5′ […] 3′ (SEQ ID NO: 9), located at nucleotide positions […] of β-actin (GenBank Accession No. NM 007393 (SEQ ID NO: 8)). The resultant amplified IL-10, IFN-γ and β-actin transcripts were separated by electrophoresis on an agarose gel, and visualized by ehtidium bromide staining.
Male ApoE-KO mice 7-9 weeks of age were treated by oral administration of human β2GPI (100 μg/mouse) or PBS, as control, by gavage, as detailed hereinabove, 5 times, on every other day. […]

LDL-RD mice [2] = experiment: Aortic sinus lesion area after intraperitoneal immunization with incomplete Freund's adjuvant; conditions: End, intraperitoneal with incomplete Freund's adjuvant, head 100 μg, mean ± S.E
Procedure: Intraperitoneal immunization with human β2GPI-derived peptides: human β2GPI-derived peptides were dissolved in PBS and mixed with equal volumes of Freund's incomplete adjuvant. […] One week following the last immunization, the diet was switched from chow to atherogenic “Western” diet for five weeks, and then the mice were sacrificed.
Assessment of Atherosclerosis: Quantification of atherosclerotic fatty streak lesions was done by calculating the lesion size in the aortic sinus as previously described (16) and by calculating the lesion size in the aorta. Briefly, after perfusion with saline Tris EDTA, the heart and the aorta were removed from the animals and the peripheral fat cleaned carefully. The upper section of the heart was embedded in OCT medium (10.24% w/w polyvinyl alcohol; 4.26% w/w polyethylene glycol; 85.50% w/w nonreactive ingredients) and frozen. Every other section (10 μm thick) throughout the aortic sinus (400 μm) was taken for analysis. The distal portion of the aortic sinus was recognized by the three valve cusps that are the junctions of the aorta to the heart. […] Lesion areas per section were scored on a grid (17) by an observer counting unidentified, numbered specimens. The aorta was dissected from the heart and surrounding adventitious tissue was removed. Fixation of the aorta and Sudan staining of the vessels were performed as previously described (21). […]

LDL-RD mice [3] = experiment: Aortic sinus lesion area after oral administration, Western diet; conditions: for Aortic sinus lesion (μm^2): End, mean ± S.E
Procedure: Oral Tolerance: For comparison, oral tolerance to plaque-associated molecules was induced by feeding […] of antigen every other day (for a detailed account of induction of oral tolerance, see U.S. patent application Ser. No. 09/806,400 to Shoenfeld et al filed Sep. 30, 1999), in a similar regimen to the nasal tolerance. LDL-RD mice were fed by a nasogastric tube, five doses (every other day) of human or bovine β2GPI in PBS in two different concentrations (500 and 50 μg/dose).
Oral tolerance to β2GPI-derived peptides, alone or in combination was induced by feeding 100 μg of the peptides (prepared in PBS, 0.2 ml), as detailed hereinabove, every other day for a total of 5 doses of 100 μg. One day following the last feeding, all mice were switched from chow-diet to an atherogenic “Western” diet and sacrificed five weeks later.
Assessment of Atherosclerosis: Quantification of atherosclerotic fatty streak lesions was done by calculating the lesion size in the aortic sinus as previously described (16) and by calculating the lesion size in the aorta. Briefly, after perfusion with saline Tris EDTA, the heart and the aorta were removed from the animals and the peripheral fat cleaned carefully. The upper section of the heart was embedded in OCT medium (10.24% w/w polyvinyl alcohol; 4.26% w/w polyethylene glycol; 85.50% w/w nonreactive ingredients) and frozen. Every other section (10 μm thick) throughout the aortic sinus (400 μm) was taken for analysis. The distal portion of the aortic sinus was recognized by the three valve cusps that are the junctions of the aorta to the heart. […] Lesion areas per section were scored on a grid (17) by an observer counting unidentified, numbered specimens. The aorta was dissected from the heart and surrounding adventitious tissue was removed. Fixation of the aorta and Sudan staining of the vessels were performed as previously described (21).
LDL-receptor deficient (LDL-RD; LDLR −/−) mice created on a C57BL/6 background develop accelerated atherosclerosis when fed a high cholesterol diet, but not when fed a regular chow diet. In order to determine whether mucosal administration of the plaque antigen β2GPI could suppress atherogenic processes, LDL-RD mice were fed low, oral tolerance inducing doses of human and bovine β2GPI, and the assessed for alterations in response to diet.

B1: Human β2 GPI: human beta2-glycoprotein I (SEQ ID NO: 10) purified from serum (protein)
chain: MISPVLILFSSFLCHVAIAGRTCPKPDDLPFSTVVPLKTFYEPGEEITYSCKPGYVSRGGMRKFICPLTGLWPINTLKCTPRVCPFAGILENGAVRYTTFEYPNTISFSCNTGFYLNGADSAKCTEEGKWSPELPVCAPIICPPPSIPTFATLRVYKPSAGNNSLYRDTAVFECLPQHAMFGNDTITCTTHGNWTKLPECREVKCPFPSRPDNGFVNYPAKPTLYYKDKATFGCHDGYSLDGPEEIECTKLGNWSAMPSCKASCKLPVKKATVVYQGERVKIQEKFKNGMLHGDKVSFFCKNKEKKCSYTEDAQCIDGTIEVPKCFKEHSSLAFWKTDASDVKPC
[1]
  expression of IFN-γ in aorta (RT-PCR): inhibition of expression
  expression of IL-10 in aorta (RT-PCR): induction of expression
  tissue levels of β-actin gene transcripts (RT-PCR): without any influence
LDL-RD mice [2]
  Aortic sinus lesion (μm^2): 36782 ± 5962 μm^2
LDL-RD mice [3]; oral 50 μg
  Aortic sinus lesion (μm^2): 26563 ± 2370 μm^2
LDL-RD mice [3]; oral 100 μg
  Aortic sinus lesion (μm^2): 30250 ± 4464 μm^2
LDL-RD mice [3]; oral 500 μg
  Aortic sinus lesion (μm^2): 27031 ± 3387 μm^2
LDL-RD mice [3]; oral 50 μg/dose
  reduction of atherosclerosis as compared with BSA-fed controls: 45%
LDL-RD mice [3]; oral 100 μg/dose, 5 doses, Western diet 5 weeks
  reduction of atherosclerosis (aortic sinus lesion size) as compared with BSA- and PBS-fed controls: 44%
LDL-RD mice [3]; oral 500 μg/dose
  reduction of atherosclerosis as compared with BSA-fed controls: 44%
